Assay results: PMC3791895 (mBio, 2013)

Biological target: the molecule itself
Assay: SEC

B1: Enterococcus faecalis FabI enoyl-ACP reductase (enzyme, UniProt Q820V5 1-250, looked up)
chain: MFLQNKNVVVMGVANKKSIAWGCAKALKDQGANVIYTYQNERMKKQVVKLADENDLLVECDVASDASIQAAFETIKNEVGTIDGLVHAIAFAKKEELSGNVSDITRDGFLLAQDISSYSLLAVTHYAKPLLNPGSGIVTLTYLGSERAIPNYNMMGIAKASLETAVKYLAFELAADKIRVNGISAGAIKTLAVTGVKDYDQLISISNERTPDKTGVTIEEVGNTCAFLVSDLASGVVGDIIYVDKGVHLT
- stoichiometry N: 2
